Data as given in patent publication US20260224446A1, “BIFUNCTIONAL PEPTIDES USEFUL FOR COLLAGEN INTRAFIBRILLAR MINERALIZATION” (University of Kansas, priority 2023, published 2026).

Tests used:
Type 1 rat tail collagen [1] = target: T1, Type 1 rat tail collagen (Rattus norvegicus, UniProt P02454+P02466); assay: MicroXCT imaging of mineral formed within peptide-incorporated collagen after ALP-driven mineralization; format: biochemical; conditions: MicroXCT shaded surface display, 20-min ALP-driven mineralization
T1 construct: Collagen Type 1 solution from rat tail (3 mg/mL, C3867, 95%) was purchased from Sigma-Aldrich; purchased Sigma-Aldrich C3867; host or cells: rat tail (tissue-derived)
Experimental: (§1) Grade V1 round mica, 0.21 mm thick and 12 mm in diameter, was used as the substrate surface and mounted onto a 12 mm atomic force microscopy specimen disc using STKYDOT adhesive. In 1 mL of 3 mg/mL Type 1 rat tail collagen suspension, 50 nanomoles of peptide were added. The ratio of mass collagen to mass peptide ranged from 100 wt collagen: 1 wt peptide for single domains to 100 wt collagen: 3 wt peptide for the chimeric peptide. Once peptide was dissolved and gently mixed in the collagen suspension, 150 μL was drop-cast onto the substrate surface and left to self-assemble at 4° C. for 16 h.
ALP-driven mineralization was executed following the protocol discussed in Gungormus et al. (2008). The mineralization buffer prepared was composed of 24.4 Ca^2+ mM and 14.4 mM B-glycerophosphate made in 25 mM Tris-HCl buffer at pH 7.4, and 200 μL/well was added to a 24-well plate. […]
The microscale structure of the mineral formed within the peptide-incorporated collagen platform as a physical indicator of intrafibrillar mineralization, was observed using 3D X-ray microcomputed tomography (MicroXCT-400, Xradia Inc., Pleasanton, CA, USA). […] The 3D images were reconstructed using the XM Reconstructor 8.0 software and were analyzed from an orthogonal view using a TXM 3D Viewer under the […] surface display (SSD) mode (Xradia Inc., Pleasanton, CA, USA). […]

Type 1 rat tail collagen [2] = target: T1, Type 1 rat tail collagen; assay: Collagen fibril self-assembly with incorporated peptide, AFM topography fibril widths; conditions: peptide co-assembled with collagen (50 nanomoles in 1 mL of 3 mg/mL), drop-cast on mica
Experimental: as §1
(§2) A Bruker Multimode 8 HR scanning probe microscope (Bruker Nano Inc., Camarillo, CA, USA) was operated in peak force tapping mode with the capability of Quantitative Nanomechanics (PeakForce-QNM) in air mode conditions (24±2° C., 40%±5% RH). This advanced testing mode was used to examine the topographical and nanomechanical property changes of the collagen-peptide samples both before and after mineralization. Tapping mode etched silicon probes, type RTESPA 525-30 (Bruker Nano Inc., Camarillo, CA, USA) with a resonant frequency of about 518 kHz, were used to acquire images (1 μm×3 μm and 5 μm×5 μm) at scan rate of 0.5 Hz with 512 pixel/line resolution. The images of the samples were recorded using NanoScope 8.15 software and analyzed using NanoScope Analysis 2.0 software (Bruker Nano Inc., Camarillo, CA, USA).
Building upon the conformational flexibility of the peptide, the CBP-HABP1 peptide was then studied for the assembly properties on the collagen fibrils on mica substrate using AFM topography image analysis. The images were acquired in tapping mode. Non-fibril features, indicated as intensity saturated regions on the surface, are acetic acid salt crystals from the evaporation of the solution in which the collagen was suspended. These features were excluded from image to prevent signal shadowing of the surface fibril assembly. […] Collagen+ (CBP-HABP1) fibrils were measured to be smaller than collagen-alone fibrils, resulting in a statistically significant difference. […]

Type 1 rat tail collagen [3] = target: T1, Type 1 rat tail collagen; assay: SEM/EDS of Ca-P deposits on peptide-incorporated collagen after ALP-driven mineralization; format: biochemical
Experimental: as §1
(§3) ALP-driven mineralization was executed following the protocol discussed in Gungormus et al. (2008). The mineralization buffer prepared was composed of 24.4 Ca^2+ mM and 14.4 mM B-glycerophosphate made in 25 mM Tris-HCl buffer at pH 7.4, and 200 μL/well was added to a 24-well plate. Collagen-peptide samples were placed gently within the well to lay flat at the bottom. The mineralization reaction was initiated by adding FastAP (thermosensitive alkaline phosphatase), 1.4×10^−6 g/mL, and left to incubate at 37° C. for 20 min. The samples were then removed from the wells, gently rinsed in sterile-filtered water, and left to air dry overnight. Throughout this process the samples were handled in a horizontally flat manner to prevent disturbing the peptide-functionalized collagen layer on the surface of the substrate.
In order to examine initial intrafibrillar mineral formation and morphology and determine Ca/P ratios precipitated on the peptide-functionalized collagen surface, a Cold Field Emission Scanning […] Microscope (SEM, S-4700 model, Hitachi High-Tech America, Schaumburg, IL, USA) equipped with a silicon drift energy-dispersive detector (EDS, X-max, Oxford Instruments, Concord, MA, USA) was used via the Microscopy and Analytical Imaging Research Resource Core Laboratory (RRID:SCR_021801). Collagen-peptide samples were sputter-coated with 3 nm gold using a Quorum sputter coating system (Q150, Quorum, Laughton, East Sussex, UK). SEM imaging was completed at an acceleration voltage of 10 kV at ultra-high resolution operating mode and EDS measurements were made at 10 kV under normal operating mode to preserve the integrity of the collagen-peptide layer and prevent burning during signal capture. EDS analysis was performed through AZtec software (X-MaxN, Oxford Instruments, Concord, MA, USA).
The composition and morphology of the Ca—P deposits formed on collagen samples were examined using scanning electron microscopy (SEM) with energy dispersive X-ray analysis (EDS). […] The EDS results validated the finding of Ca—P mineral isomorphs on the peptide-incorporated collagen platforms. The calcium/phosphate ratios were calculated to examine compositional differences. […] Whereas collagen+ (CBP) and collagen+ (CBP-HABP1) had comparatively lower average Ca—P ratios at 1.30 and 1.25, respectively. These values are similar to the molar ratio of octacalcium phosphate, which is around 1.33, and amorphous calcium phosphate (ACP), which is roughly 1.50 [54-57].

Type 1 rat tail collagen [4] = target: T1, Type 1 rat tail collagen; assay: PeakForce-QNM AFM modulus mapping of peptide-functionalized collagen pre/post ALP-driven mineralization; conditions: peptide incorporated into collagen
Experimental: as §1, §3, §2
Building on the observed effects of the chimeric peptide on the collagen, next examined was if there was a change on the mechanical properties of the collagen due to the peptide presence. Quantitative modulus mapping was executed via PeakForce-QNM AFM to observe the changes in the elastic modulus distribution on the surfaces. The elastic modulus was previously established to be derived by using the Derjaguin-Muller-Toropov (DMT) model, and is thus reported as the DMT modulus. […]

T1 sequence (P02466 86-1125 limits assumed): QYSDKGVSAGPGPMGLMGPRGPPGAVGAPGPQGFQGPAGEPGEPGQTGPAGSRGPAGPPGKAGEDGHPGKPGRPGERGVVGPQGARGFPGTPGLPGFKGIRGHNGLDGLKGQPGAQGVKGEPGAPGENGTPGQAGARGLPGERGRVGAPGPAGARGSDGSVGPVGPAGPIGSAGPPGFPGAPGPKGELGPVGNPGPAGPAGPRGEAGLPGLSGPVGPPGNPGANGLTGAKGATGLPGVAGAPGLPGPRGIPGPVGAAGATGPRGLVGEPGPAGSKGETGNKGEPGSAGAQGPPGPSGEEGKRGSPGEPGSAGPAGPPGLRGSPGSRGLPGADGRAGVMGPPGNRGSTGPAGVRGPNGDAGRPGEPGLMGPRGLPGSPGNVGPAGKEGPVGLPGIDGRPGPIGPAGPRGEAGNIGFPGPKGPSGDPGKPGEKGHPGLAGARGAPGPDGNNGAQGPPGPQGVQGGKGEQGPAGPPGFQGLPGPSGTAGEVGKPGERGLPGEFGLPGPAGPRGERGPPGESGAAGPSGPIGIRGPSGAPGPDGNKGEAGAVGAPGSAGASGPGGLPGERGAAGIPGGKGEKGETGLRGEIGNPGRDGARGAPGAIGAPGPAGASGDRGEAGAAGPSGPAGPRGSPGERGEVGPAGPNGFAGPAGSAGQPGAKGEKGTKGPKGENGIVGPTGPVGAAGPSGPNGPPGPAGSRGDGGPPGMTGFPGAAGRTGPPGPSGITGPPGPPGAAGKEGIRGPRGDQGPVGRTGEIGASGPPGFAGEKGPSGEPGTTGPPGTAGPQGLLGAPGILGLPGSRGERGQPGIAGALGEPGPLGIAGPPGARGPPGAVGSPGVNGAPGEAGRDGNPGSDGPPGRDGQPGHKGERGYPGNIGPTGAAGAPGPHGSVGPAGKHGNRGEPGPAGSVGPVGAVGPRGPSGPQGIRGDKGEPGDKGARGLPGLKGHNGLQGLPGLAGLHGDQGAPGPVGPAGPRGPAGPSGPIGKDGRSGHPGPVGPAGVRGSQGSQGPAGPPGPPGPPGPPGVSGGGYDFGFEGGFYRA
T1 sequence (P02454 152-1207 limits assumed): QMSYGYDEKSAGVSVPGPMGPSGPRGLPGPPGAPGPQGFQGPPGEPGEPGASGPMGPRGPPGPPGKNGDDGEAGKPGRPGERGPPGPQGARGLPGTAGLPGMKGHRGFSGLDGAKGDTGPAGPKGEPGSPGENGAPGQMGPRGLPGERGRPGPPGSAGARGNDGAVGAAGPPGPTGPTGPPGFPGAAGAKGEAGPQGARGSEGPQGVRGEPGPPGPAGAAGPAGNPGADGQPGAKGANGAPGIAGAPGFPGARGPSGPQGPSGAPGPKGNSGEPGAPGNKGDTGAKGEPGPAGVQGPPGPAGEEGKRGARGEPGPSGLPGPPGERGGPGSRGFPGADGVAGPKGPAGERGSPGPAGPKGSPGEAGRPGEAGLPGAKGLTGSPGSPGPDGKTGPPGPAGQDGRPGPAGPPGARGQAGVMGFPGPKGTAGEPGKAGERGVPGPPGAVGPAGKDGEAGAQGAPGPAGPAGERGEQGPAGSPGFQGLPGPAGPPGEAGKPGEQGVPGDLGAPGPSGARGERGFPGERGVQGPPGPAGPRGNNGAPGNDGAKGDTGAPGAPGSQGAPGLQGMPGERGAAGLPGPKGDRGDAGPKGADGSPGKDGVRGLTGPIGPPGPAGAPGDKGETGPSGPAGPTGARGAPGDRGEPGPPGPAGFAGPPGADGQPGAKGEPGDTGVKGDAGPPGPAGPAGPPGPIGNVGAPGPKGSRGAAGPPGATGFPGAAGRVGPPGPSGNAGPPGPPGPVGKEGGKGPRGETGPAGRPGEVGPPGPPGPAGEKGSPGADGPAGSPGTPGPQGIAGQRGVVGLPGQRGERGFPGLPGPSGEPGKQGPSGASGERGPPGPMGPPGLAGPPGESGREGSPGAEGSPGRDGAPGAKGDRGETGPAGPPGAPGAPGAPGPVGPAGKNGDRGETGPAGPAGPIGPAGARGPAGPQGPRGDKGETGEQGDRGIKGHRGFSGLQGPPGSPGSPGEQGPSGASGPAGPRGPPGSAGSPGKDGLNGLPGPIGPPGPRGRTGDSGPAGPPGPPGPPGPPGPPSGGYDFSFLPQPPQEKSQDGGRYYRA

Which “void areas in collagen interior” value (Type 1 rat tail collagen [1]) does the source give for TKKLTLRTAPAMLPHHGA [CBP-HABP1] here?
The value was “almost no void areas”.

What about the “density of mineralized collagen layer” value (Type 1 rat tail collagen [1]; versus collagen control) of the same sequence?
The value was “denser formation compared to ALP-based mineralized collagen samples”.

And the Mean fibril width (Type 1 rat tail collagen [2])?
Its Mean fibril width is 82.37 nm.

And the “average Ca—P ratio” value (Type 1 rat tail collagen [3]; EDS, initial mineral on peptide-incorporated collagen after 20 min ALP-driven mineralization)?
The value was 1.25.

What about the “mineral formation morphology on SEM images” value (Type 1 rat tail collagen [3]; peptide-incorporated collagen after ALP-driven mineralization) of the same sequence?
The value was “more extensively branched columnar mineral growth as well as plate-like mineral growth”.

And the “DMT (elastic) modulus” value (Type 1 rat tail collagen [4]; after 20 min ALP-driven mineralization)?
Its value is 5.83 GPa.

And the “DMT (elastic) modulus” value (Type 1 rat tail collagen [4]; pre-mineralization)?
Its value is 5.25 GPa.
